Measured values published in US20150114310A1.

Legend:
[1] = target: Anti-roIFNT antibody; experiment: competitive RIA, unlabelled IFNT displacing 125I-roIFNT from the antibody; less dilute primary antibody
[2] = target: Anti-roIFNT antibody; experiment: competitive RIA, unlabelled IFNT displacing 125I-roIFNT from the antibody; primary antibody at 1:60,000

recombinant ovine IFNT (roIFNT) (ligand)
amount of ligand required to displace 50% binding [1]: 1.5 ng | amount of ligand required to displace 50% binding [2]: 0.4 ng
